Test results from patent US20160046675A1 (US Dept. of Health and Human Services, published 2016).

Target: RSV F glycoprotein on RSV-infected HEp-2 cells and on RSV virions (respiratory syncytial virus; strain not …, UniProt P03420 26-109; P03420 137-574)
Test: cell-based or functional assay

Chain of RSV F glycoprotein on RSV-infected HEp-2 cells and on RSV virions (P03420 26-109, chain 1 of 2): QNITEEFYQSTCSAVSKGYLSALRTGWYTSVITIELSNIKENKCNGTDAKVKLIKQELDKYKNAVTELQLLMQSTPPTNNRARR
Chain of RSV F glycoprotein on RSV-infected HEp-2 cells and on RSV virions (P03420 137-574, chain 2 of 2): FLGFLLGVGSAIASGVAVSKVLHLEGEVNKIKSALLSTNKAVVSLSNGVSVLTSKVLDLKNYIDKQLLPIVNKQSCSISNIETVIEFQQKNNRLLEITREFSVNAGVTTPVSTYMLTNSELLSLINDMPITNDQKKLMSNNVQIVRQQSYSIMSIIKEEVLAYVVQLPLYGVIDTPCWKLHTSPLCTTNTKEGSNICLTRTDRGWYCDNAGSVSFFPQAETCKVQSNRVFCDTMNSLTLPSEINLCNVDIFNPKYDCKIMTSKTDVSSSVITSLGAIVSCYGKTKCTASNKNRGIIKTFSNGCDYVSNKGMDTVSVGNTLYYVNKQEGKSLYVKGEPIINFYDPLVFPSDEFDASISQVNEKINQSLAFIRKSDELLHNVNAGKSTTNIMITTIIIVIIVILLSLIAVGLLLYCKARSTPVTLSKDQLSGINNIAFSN

B1: AM22 monoclonal antibody (antibody, V domains shown)
VH: QVQLVQSGAEVKKPGATVKVSCKISGHTLIKLSIHWVRQAPGKGLEWMGGYEGEVDEIFYAQKFQHRLTVIADTATDTVYMELGRLTSDDTAVYFCGTLGVTVTEAGLGIDDYWGQGTLVTVSS
VL: EIVLTQSPGTLSLSPGERATLSCRASQIVSRNHLAWYQQKPGQAPRLLIFGASSRATGIPVRFSGSGSGTDFTLTINGLAPEDFAVYYCLSSDSSIFTFGPGTKVDFKR
RSV neutralization (flow cytometry, RSV-GFP on HEp-2 cells): ~50 fold (potency relative to palivizumab)
